Read-outs that look alike come from different tables or passages of the source.

Results on 5 molecules are retold here after publication doi:10.1101/2021.12.09.471704.

Data set [1] deals with T1, SiAgo (complex subunit);SiAga1 (complex subunit) (Sulfolobus islandicus M164;Sulfolobus …, UniProt C4KI01;C4KI00 1-459;1-243, |).
T1 sequence 1: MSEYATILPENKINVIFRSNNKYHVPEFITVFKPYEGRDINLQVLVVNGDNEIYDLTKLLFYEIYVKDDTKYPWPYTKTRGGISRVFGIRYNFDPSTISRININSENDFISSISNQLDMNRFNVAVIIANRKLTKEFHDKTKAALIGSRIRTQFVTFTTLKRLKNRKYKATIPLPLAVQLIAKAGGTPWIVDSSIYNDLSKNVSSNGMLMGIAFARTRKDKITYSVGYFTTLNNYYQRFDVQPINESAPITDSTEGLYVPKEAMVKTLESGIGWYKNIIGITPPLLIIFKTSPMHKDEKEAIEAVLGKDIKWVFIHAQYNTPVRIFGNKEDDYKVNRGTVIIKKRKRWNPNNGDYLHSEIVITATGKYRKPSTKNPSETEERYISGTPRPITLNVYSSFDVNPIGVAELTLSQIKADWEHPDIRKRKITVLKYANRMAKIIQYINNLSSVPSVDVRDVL
T1 sequence 2: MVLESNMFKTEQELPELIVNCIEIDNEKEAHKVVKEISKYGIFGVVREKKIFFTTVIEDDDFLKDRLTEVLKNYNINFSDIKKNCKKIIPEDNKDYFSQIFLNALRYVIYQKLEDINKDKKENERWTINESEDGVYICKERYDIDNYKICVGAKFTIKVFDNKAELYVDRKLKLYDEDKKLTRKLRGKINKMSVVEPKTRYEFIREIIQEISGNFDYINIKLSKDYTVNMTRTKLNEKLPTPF
Kind of data set: competition.

For data set [2], the target named is T1, SiAgo (complex subunit);SiAga1 (complex …). As to the kind of experiment: EMSA. Background: In EMSA bound probe runs differently from free probe, usually more slowly.
Data set [3] has the same target. As to the kind of experiment: EMSA. This is another data set of the same source.
In data set [4] the target is T2, SiAgo (Sulfolobus islandicus M164, UniProt C4KI01 1-459).
T2 sequence: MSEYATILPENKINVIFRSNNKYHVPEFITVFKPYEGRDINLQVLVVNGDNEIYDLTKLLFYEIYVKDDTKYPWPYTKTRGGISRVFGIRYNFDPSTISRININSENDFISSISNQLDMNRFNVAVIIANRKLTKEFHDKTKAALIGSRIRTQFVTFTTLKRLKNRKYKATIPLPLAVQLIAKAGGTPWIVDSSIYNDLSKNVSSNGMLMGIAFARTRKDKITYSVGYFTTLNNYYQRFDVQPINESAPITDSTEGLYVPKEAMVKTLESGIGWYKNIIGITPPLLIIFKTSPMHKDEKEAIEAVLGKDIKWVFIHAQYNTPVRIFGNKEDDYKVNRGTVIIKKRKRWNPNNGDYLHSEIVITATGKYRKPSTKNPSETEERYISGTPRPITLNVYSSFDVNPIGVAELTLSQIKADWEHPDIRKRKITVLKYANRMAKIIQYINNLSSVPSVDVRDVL
Kind of data set: EMSA.

Data set [5] addresses T3, SiAgo M2;SiAga1 (complex subunit) (Sulfolobus islandicus M164;Sulfolobus …, UniProt C4KI01;C4KI00 1-459;1-243, K183A|).
T3 sequence 1: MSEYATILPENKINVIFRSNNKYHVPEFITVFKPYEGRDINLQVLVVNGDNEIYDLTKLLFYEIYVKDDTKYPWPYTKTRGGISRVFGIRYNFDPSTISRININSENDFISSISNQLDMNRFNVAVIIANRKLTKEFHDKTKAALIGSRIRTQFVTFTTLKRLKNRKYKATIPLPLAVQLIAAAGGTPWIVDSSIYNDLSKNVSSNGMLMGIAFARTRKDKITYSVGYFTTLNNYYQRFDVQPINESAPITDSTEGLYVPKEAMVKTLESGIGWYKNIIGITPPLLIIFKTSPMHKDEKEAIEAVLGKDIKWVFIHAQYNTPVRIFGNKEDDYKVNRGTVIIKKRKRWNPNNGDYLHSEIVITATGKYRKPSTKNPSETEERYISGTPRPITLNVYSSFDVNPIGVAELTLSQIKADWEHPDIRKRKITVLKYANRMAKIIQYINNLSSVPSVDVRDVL
T3 sequence 2: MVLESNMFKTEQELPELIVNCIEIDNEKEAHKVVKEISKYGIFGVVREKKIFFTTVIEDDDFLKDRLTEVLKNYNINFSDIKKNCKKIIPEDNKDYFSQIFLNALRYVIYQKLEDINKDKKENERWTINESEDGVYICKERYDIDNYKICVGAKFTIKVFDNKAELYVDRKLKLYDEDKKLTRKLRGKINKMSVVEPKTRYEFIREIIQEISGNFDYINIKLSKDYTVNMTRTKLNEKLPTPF
Kind of data set: EMSA.

Data set [6] has as its target T4, SiAgo M1;SiAga1 (complex subunit) (Sulfolobus islandicus M164;Sulfolobus …, UniProt C4KI01;C4KI00 1-459;1-243, K142A|).
T4 sequence 1: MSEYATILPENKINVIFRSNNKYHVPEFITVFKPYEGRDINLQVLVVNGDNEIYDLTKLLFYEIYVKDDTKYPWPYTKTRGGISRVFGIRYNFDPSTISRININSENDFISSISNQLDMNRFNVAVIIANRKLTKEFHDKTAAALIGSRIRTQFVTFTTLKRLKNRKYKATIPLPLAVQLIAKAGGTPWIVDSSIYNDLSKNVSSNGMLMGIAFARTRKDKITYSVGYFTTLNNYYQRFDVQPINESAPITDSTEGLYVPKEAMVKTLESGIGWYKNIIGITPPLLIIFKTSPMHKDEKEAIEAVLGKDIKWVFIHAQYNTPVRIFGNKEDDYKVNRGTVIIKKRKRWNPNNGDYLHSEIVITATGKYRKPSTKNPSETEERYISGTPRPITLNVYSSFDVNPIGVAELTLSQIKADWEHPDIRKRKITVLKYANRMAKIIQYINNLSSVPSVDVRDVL
T4 sequence 2: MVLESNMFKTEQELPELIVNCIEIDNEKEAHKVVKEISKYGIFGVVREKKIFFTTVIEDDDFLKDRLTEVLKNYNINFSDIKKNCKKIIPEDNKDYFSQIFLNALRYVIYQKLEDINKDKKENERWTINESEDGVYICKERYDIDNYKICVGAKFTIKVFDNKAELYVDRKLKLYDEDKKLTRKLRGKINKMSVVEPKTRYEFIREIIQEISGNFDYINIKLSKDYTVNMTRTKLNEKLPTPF
Kind of data set: EMSA.

In data set [7] the target is T3, SiAgo M2;SiAga1 (complex subunit). Kind of data set: EMSA. The source holds these as a separate data set.
The target in data set [8] is T4, SiAgo M1;SiAga1 (complex subunit). Kind of data set: EMSA. The source holds these as a separate data set.

B1: guide 5P-RNA + TDNA competitor (mixed)
RNA: UCAAAGCUUAGAUACCCUGGA
DNA: CCTCCAGGGTATCTAAGCTTTGAA
modifications: guide 5' phosphate
As to B1, the binding result in data set [1] is reported as “binds”.

B2: guide 5P-RNA + TRNA (mixed)
RNA 1: UCAAAGCUUAGAUACCCUGGA
RNA 2: CCUCCAGGGUAUCUAAGCUUUGAA
modifications: guide 5' phosphate
For the molecule B2, the binding result in data set [2] is reported as “binds”.
As to UCAAAGCUUAGAUACCCUGGA (ssRNA, 5' phosphate) [5P-RNA], the binding result in data set [3], in data set [4], in data set [5] and in data set [6] was “binds” throughout.

B3: guide 5P-RNA + TRNA competitor (mixed)
RNA 1: UCAAAGCUUAGAUACCCUGGA
RNA 2: CCUCCAGGGUAUCUAAGCUUUGAA
modifications: guide 5' phosphate
Turning to B3, in data set [1], the binding result is given as “binds”.

B4: guide 5P-RNA + TDNA (mixed)
RNA: UCAAAGCUUAGAUACCCUGGA
DNA: CCTCCAGGGTATCTAAGCTTTGAA
modifications: guide 5' phosphate
In the case of B4, the binding result in data set [2], in data set [7] and in data set [8] was “binds” in each case.
